T1: Biotin-huCGRPaSA (human, not fully specified; biotin (position not given))
T1 construct: exact construct ('aSA') not explained; also called Biotin CGRPaSA; full-length (1-37) CGRP
T1 peptide: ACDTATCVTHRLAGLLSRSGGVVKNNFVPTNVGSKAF


Columns and labels:
CGRP antigen = assay: cell-based or functional assay
Biotin-huCGRPaSA = molecular target: T1, Biotin-huCGRPaSA; assay: ELISA, supernatant; relative to chimeric C245
How it was run: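 Plates coated with biotin-CGRPaSA at 1.0 μg/mL (90 min, 37°C) and blocked with 2% BSA. Humanized antibodies and chimeric C245 reference, 2.5-fold serial dilutions from 1000 ng/mL, bound 60 min at 37°C. Detection by HRP anti-human IgG (Fc), TMB 15 min, read at 450/620 nm.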

Row | Binder | IC50 (CGRP antigen) | relative activity (%) vs Ref(TEVA) (CGRP antigen) | Relative binding activity, % (Biotin-huCGRPaSA)
1 | hu71 (antibody, V domains shown, 1F5 HC-4/1F5 LC1-2) VH: QVQLVQSGSELKKPGASVKVSCKASGYTFTDFNMHWVRQAPGQGLEWMGYIYPYNGDVVYNQNFTNRFVLSVDSSSSTAYLQISSLKAEDTAVYYCAREGLGGYWGQGTLVTVSS VL: EIVLTQSPATLSLSPGERATLSCKASQNIDFDGYAYMNWYQHKPGQAPRVLIYSVFNLESGIPARFSGSGSGTDFTLTISSLEPEDFAVYYCQQSHEVPYTFGQGTKLEIK | 0.0404 µg/mL | 77% | 120%
2 | hu89 (antibody, V domains shown, 1F5 HC-5/3E5 LC-1) VH: QVQLVQSGAEVKKPGASVKVSCKASGYTFIDFNMHWVRQAPGQRLEWMGYIYPYNADVVYNQDFTNRVTLTVDTSSSTAYMELSSLRSEDTAVYYCAREGLGGYWGQGTLVTVSS VL: DIVLTQSPDSLAVSLGERATINCKASQNIDYDGYTYLNWYQQKPGQPPKVLIYSIFNLESGVPDRFSGSGSGTDFTLTISSLQAEDVAVYYCQQSNEVPYTFGQGTKLEIK | 0.0979 µg/mL | 48% | 112%
3 | hu151 (antibody, V domains shown, 3E5 HC-1/1F5 LC1-4) VH: QVQLVQSGAEVKKPGASVKVSCKTSGYTFTDYNMHWVRQAPGQRLEWMGYISPYNGGTAYNQKFKFRVTLTVDTSSSTAYMELSSLRSEDTAVYYCAREGLGGYWGQGTLVTVSS VL: DIVLTQSPDSLAVSLGERATINCKASQNIDFDGYAYMNWYQHKPGQPPKVLIYSVFNLESGVPDRFSGSGSGTDFTLTISSLQAEDVAVYYCQQSHEVPYTFGQGTKLEIK | 0.0677 µg/mL | 48% | 119%
4 | hu90 (antibody, V domains shown, 1F5 HC-5/3H10 LC2-1) VH: QVQLVQSGAEVKKPGASVKVSCKASGYTFIDFNMHWVRQAPGQRLEWMGYIYPYNADVVYNQDFTNRVTLTVDTSSSTAYMELSSLRSEDTAVYYCAREGLGGYWGQGTLVTVSS VL: DIVLTQSPDSLAVSLGERATINCKASQNIDYGGYSYMNWYQQKPGQPPKVLIYSVFNLESGVPDRFSGSGSGTDFTLTISSLQAEDVAVYYCQQSNEAPYTFGQGTKLEIK | 0.058 µg/mL | 53% | 102%
5 | hu154 (antibody, V domains shown, 3E5 HC-1/3E5 LC-1) VH: QVQLVQSGAEVKKPGASVKVSCKTSGYTFTDYNMHWVRQAPGQRLEWMGYISPYNGGTAYNQKFKFRVTLTVDTSSSTAYMELSSLRSEDTAVYYCAREGLGGYWGQGTLVTVSS VL: DIVLTQSPDSLAVSLGERATINCKASQNIDYDGYTYLNWYQQKPGQPPKVLIYSIFNLESGVPDRFSGSGSGTDFTLTISSLQAEDVAVYYCQQSNEVPYTFGQGTKLEIK | 0.0905 µg/mL | 36% | 121%
6 | hu128 (antibody, V domains shown, 2B8 HC1-2/3E5 LC-1) VH: QVQLVQSGAEVKKPGASVKVSCKASGYTFTDYNMHWVRQAPGQGLEWMGNIYPYNGGTVYNQKFNNRVTLTVDTSSSTAYMELRSLRSDDTAVYYCAREGLGGYWGQGTLVTVSS VL: DIVLTQSPDSLAVSLGERATINCKASQNIDYDGYTYLNWYQQKPGQPPKVLIYSIFNLESGVPDRFSGSGSGTDFTLTISSLQAEDVAVYYCQQSNEVPYTFGQGTKLEIK | 0.109 µg/mL | 28% | 117%
7 | hu131 (antibody, V domains shown, 2B8 HC1-3/1A2 LC2-1) VH: QVQLVQSGAEVKKPGASVKVSCKASGYTFTDYNMHWVRQAPGQGLEWMGNIYPYNAGTVYNQKFNNRVTLTVDTSSSTAYMELSRLRSDDTAVYYCAREGLGGYWGQGTLVTVSS VL: DIVLTQSPASLAVSPGQRATITCKASQNIDYDGYAYLNWYQQKPGQPPKVLIYSVFNLESGVPARFSGSGSGTDFTLTINPVEANDTANYYCQQSNEFPYTFGQGTKLEIK | 0.0425 µg/mL | 80% | 107%
8 | hu193 (antibody, V domains shown, 3E5 HC-4/3E5 LC-1) VH: QVQLVQSGAEVKKPGASVKVSCKTSGYTFTDYNMHWVRQAPGQRLEWMGYISPYNAGTAYNQKFKFRVTLTVDTSSSTAYMELSSLRSEDTAVYYCAREGLGGYWGQGTLVTVSS VL: DIVLTQSPDSLAVSLGERATINCKASQNIDYDGYTYLNWYQQKPGQPPKVLIYSIFNLESGVPDRFSGSGSGTDFTLTISSLQAEDVAVYYCQQSNEVPYTFGQGTKLEIK | 0.0775 µg/mL | 42% | 100%
9 | hu84 (antibody, V domains shown, 1F5 HC-5/1F5 LC1-2) VH: QVQLVQSGAEVKKPGASVKVSCKASGYTFIDFNMHWVRQAPGQRLEWMGYIYPYNADVVYNQDFTNRVTLTVDTSSSTAYMELSSLRSEDTAVYYCAREGLGGYWGQGTLVTVSS VL: EIVLTQSPATLSLSPGERATLSCKASQNIDFDGYAYMNWYQHKPGQAPRVLIYSVFNLESGIPARFSGSGSGTDFTLTISSLEPEDFAVYYCQQSHEVPYTFGQGTKLEIK | 0.256 µg/mL | 19% | 111%
10 | hu129 (antibody, V domains shown, 2B8 HC1-2/3H10 LC2-1) VH: QVQLVQSGAEVKKPGASVKVSCKASGYTFTDYNMHWVRQAPGQGLEWMGNIYPYNGGTVYNQKFNNRVTLTVDTSSSTAYMELRSLRSDDTAVYYCAREGLGGYWGQGTLVTVSS VL: DIVLTQSPDSLAVSLGERATINCKASQNIDYGGYSYMNWYQQKPGQPPKVLIYSVFNLESGVPDRFSGSGSGTDFTLTISSLQAEDVAVYYCQQSNEAPYTFGQGTKLEIK | 0.088 µg/mL | 39% | 117%
11 | hu45 (antibody, V domains shown, 1F5 HC-2/1F5 LC1-2) VH: QVQLVQSGAEVKKPGASVKVSCKASGYTFTDFNMHWVRQAPGQRLEWMGYIYPYNGDVVYNQNFTNRVTLTVDTSSSTAYMELSSLRSEDTAVYYCAREGLGGYWGQGTLVTVSS VL: EIVLTQSPATLSLSPGERATLSCKASQNIDFDGYAYMNWYQHKPGQAPRVLIYSVFNLESGIPARFSGSGSGTDFTLTISSLEPEDFAVYYCQQSHEVPYTFGQGTKLEIK | 0.108 µg/mL | 33% | 119%
12 | hu136 (antibody, V domains shown, 2B8 HC1-3/1F5 LC1-2) VH: QVQLVQSGAEVKKPGASVKVSCKASGYTFTDYNMHWVRQAPGQGLEWMGNIYPYNAGTVYNQKFNNRVTLTVDTSSSTAYMELSRLRSDDTAVYYCAREGLGGYWGQGTLVTVSS VL: EIVLTQSPATLSLSPGERATLSCKASQNIDFDGYAYMNWYQHKPGQAPRVLIYSVFNLESGIPARFSGSGSGTDFTLTISSLEPEDFAVYYCQQSHEVPYTFGQGTKLEIK | 0.124 µg/mL | 28% | 101%
13 | hu32 (antibody, V domains shown, 1F5 HC-1/1F5 LC1-2) VH: QVQLVQSGAEVKKPGASVKVSCKASGYTFIDFNMHWVRQAPGQRLEWMGYIYPYNGDVVYNQNFTNRVTLTVDTSSSTAYMELSSLRSEDTAVYYCAREGLGGYWGQGTLVTVSS VL: EIVLTQSPATLSLSPGERATLSCKASQNIDFDGYAYMNWYQHKPGQAPRVLIYSVFNLESGIPARFSGSGSGTDFTLTISSLEPEDFAVYYCQQSHEVPYTFGQGTKLEIK | 0.137 µg/mL | 26% | 116%
14 | hu167 (antibody, V domains shown, 3E5 HC-2/3E5 LC-1) VH: QVQLVQSGAEVKKPGASVKVSCKASGYTFTDYNMHWVRQAPGQRLEWMGYISPYNGGTAYNQKFKFRVTLTVDTSSSTAYMELSSLRSEDTAVYYCAREGLGGYWGQGTLVTVSS VL: DIVLTQSPDSLAVSLGERATINCKASQNIDYDGYTYLNWYQQKPGQPPKVLIYSIFNLESGVPDRFSGSGSGTDFTLTISSLQAEDVAVYYCQQSNEVPYTFGQGTKLEIK | 0.125 µg/mL | 26% | 101%
15 | hu58 (antibody, V domains shown, 1F5 HC-3/1F5 LC1-2) VH: QVQLVQSGAEVKKPGASVKVSCKASGYTFTDFNMHWVRQAPGQGLEWMGYIYPYNGDVVYNQNFTNRVTLTVDTSSSTAYMELRSLRSDDTAVYYCAREGLGGYWGQGTLVTVSS VL: EIVLTQSPATLSLSPGERATLSCKASQNIDFDGYAYMNWYQHKPGQAPRVLIYSVFNLESGIPARFSGSGSGTDFTLTISSLEPEDFAVYYCQQSHEVPYTFGQGTKLEIK | 0.0619 µg/mL | 50% | 113%
16 | hu87 (antibody, V domains shown, 1F5 HC-5/2B8 LC2-1) VH: QVQLVQSGAEVKKPGASVKVSCKASGYTFIDFNMHWVRQAPGQRLEWMGYIYPYNADVVYNQDFTNRVTLTVDTSSSTAYMELSSLRSEDTAVYYCAREGLGGYWGQGTLVTVSS VL: DIVLTQSPDSLAVSLGERATINCQASQNIDGNTYMNWYQQKPGQPPKVLIYSIFNLESGVPDRFSGSGSGTDFTLTISSLQAEDVAVYYCQQSNDYPYTFGQGTKLEIK | 0.124 µg/mL | 38% | 138%
17 | hu145 (antibody, V domains shown, 3E5 HC-1/1A2 LC2-2) VH: QVQLVQSGAEVKKPGASVKVSCKTSGYTFTDYNMHWVRQAPGQRLEWMGYISPYNGGTAYNQKFKFRVTLTVDTSSSTAYMELSSLRSEDTAVYYCAREGLGGYWGQGTLVTVSS VL: DIVLTQSPASLAVSPGQRATITCKASQNIDYDGYAYLNWYQQKPGQPPKVLIYSVFNLESGVPARFSGSGSGTDFTLTINPVEADDTANYYCQQSNEFPYTFGQGTKLEIK | 0.0978 µg/mL | 35% | 119%
18 | hu100 (antibody, V domains shown, 2A2 HC-1/2B8 LC2-1) VH: QVQLVQSGAEVKKPGASVKVSCKASGYTFTDYNMHWVRQAPGQRLEWMGYVYPYNGGSAYNQKFKSRVTLTVDTSSSTAYMELSSLRSEDTAVYYCAREGLGGYWGQGTLVTVSS VL: DIVLTQSPDSLAVSLGERATINCQASQNIDGNTYMNWYQQKPGQPPKVLIYSIFNLESGVPDRFSGSGSGTDFTLTISSLQAEDVAVYYCQQSNDYPYTFGQGTKLEIK | 0.11 µg/mL | 28% | 133%
